Laboratory results published in patent publication US20170209564A1.

Tests used:
Conditions in all cases: remark: other sources report otherwise
[1] = target: H1-mini2-cluster1+5+6-GCN4 without leader sequence and with FLAG-thrombin-foldon-HIS; test: ELISA signal over HTRF expression signal, P. pastoris; average of the parental
74H9 [2] = test: ELISA, coated CR6261, HEK293F medium
181H9 = test: ELISA, coated CR6261, HEK293F medium
131B5 = test: ELISA, coated CR6261, HEK293F medium
7A7 = test: ELISA, coated CR6261, HEK293F medium
71H2 = test: ELISA, coated CR6261, HEK293F medium
115A1 = test: ELISA, coated CR6261, HEK293F medium
6E12 = test: ELISA, coated CR6261, HEK293F medium
91C4 = test: ELISA, coated CR6261, HEK293F medium
86B4 [3] = test: ELISA, coated CR6261, HEK293F medium
171E5 = test: ELISA, coated CR6261, HEK293F medium
71C4 = test: ELISA, coated CR6261, HEK293F medium
220C9 = test: ELISA, coated CR6261, HEK293F medium
127H1 = test: ELISA, coated CR6261, HEK293F medium
113E7 = test: ELISA, coated CR6261, HEK293F medium
74H9 [4] = test: ELISA signal over HTRF expression signal, P. pastoris
10F9 = test: as above
76A10 = test: as above
63D3 = test: as above
11H6 = test: as above
29C2 = test: as above
91F10 = test: as above
86B4 [5] = test: as above
48D11 = test: as above
66C8 = test: as above
26H1 = test: as above
69D2 = test: as above
58A11 = test: as above
91C8 = test: as above
79D5 = test: as above
56D2 = test: as above
55H2 = test: as above
36E4 = test: as above
63C3 = test: as above
74D7 = test: as above
71A4 = test: as above
79C2 = test: as above
84B8 = test: as above
67C11 = test: as above
56F8 = test: as above

B1: CR6261 (antibody, V domains shown)
VH: EVQLVESGAEVKKPGSSVKVSCKASGGPFRSYAISWVRQAPGQGPEWMGGIIPIFGTTKYAPKFQGRVTITADDFAGTVYMELSSLRSEDTAMYYCAKHMGYQVRETMDVWGKGTTVTVSS
VL: QSVLTQPPSVSAAPGQKVTISCSGSSSNIGNDYVSWYQQLPGTAPKLLIYDNNKRPSGIPDRFSGSKSGTSATLGITGLQTGDEANYYCATWDRRPTAYVVFGGGTKLTVLG
- ratio (binding signal/HTRF signal) [1]: 5.94
- CR6261 binding signal (74H9 [2]): 2.61e+07
- CR6261 binding signal (181H9): 1.19e+07
- CR6261 binding signal (131B5): 5.73e+06
- CR6261 binding signal (7A7): 6.19e+06
- CR6261 binding signal (71H2): 2.11e+07
- CR6261 binding signal (115A1): 9.56e+06
- CR6261 binding signal (6E12): 1.53e+07
- CR6261 binding signal (91C4): 8.44e+06
- CR6261 binding signal (86B4 [3]): 2e+07
- CR6261 binding signal (171E5): 6.63e+06
- CR6261 binding signal (71C4): 6.41e+06
- CR6261 binding signal (220C9): 8.49e+06
- CR6261 binding signal (127H1): 2.42e+07
- CR6261 binding signal (113E7): 1.3e+07
- fold increase of ratio over parental SEQ ID NO: 6 (74H9 [4]): 6.09
- ratio (binding signal/HTRF signal) (74H9 [4]): 36.1
- fold increase of ratio over parental SEQ ID NO: 6 (10F9): 3.93
- ratio (binding signal/HTRF signal) (10F9): 23.3
- fold increase of ratio over parental SEQ ID NO: 6 (76A10): 3.37
- ratio (binding signal/HTRF signal) (76A10): 20
- fold increase of ratio over parental SEQ ID NO: 6 (63D3): 1.87
- ratio (binding signal/HTRF signal) (63D3): 11.1
- fold increase of ratio over parental SEQ ID NO: 6 (11H6): 7.87
- ratio (binding signal/HTRF signal) (11H6): 46.7
- fold increase of ratio over parental SEQ ID NO: 6 (29C2): 2.32
- ratio (binding signal/HTRF signal) (29C2): 13.8
- fold increase of ratio over parental SEQ ID NO: 6 (91F10): 1.78
- ratio (binding signal/HTRF signal) (91F10): 10.6
- fold increase of ratio over parental SEQ ID NO: 6 (86B4 [5]): 13.1
- ratio (binding signal/HTRF signal) (86B4 [5]): 77.7
- fold increase of ratio over parental SEQ ID NO: 6 (48D11): 2.98
- ratio (binding signal/HTRF signal) (48D11): 17.7
- fold increase of ratio over parental SEQ ID NO: 6 (66C8): 2.29
- ratio (binding signal/HTRF signal) (66C8): 13.6
- fold increase of ratio over parental SEQ ID NO: 6 (26H1): 1.62
- ratio (binding signal/HTRF signal) (26H1): 9.64
- fold increase of ratio over parental SEQ ID NO: 6 (69D2): 2.19
- ratio (binding signal/HTRF signal) (69D2): 13
- fold increase of ratio over parental SEQ ID NO: 6 (58A11): 1.67
- ratio (binding signal/HTRF signal) (58A11): 9.93
- fold increase of ratio over parental SEQ ID NO: 6 (91C8): 3.51
- ratio (binding signal/HTRF signal) (91C8): 20.8
- fold increase of ratio over parental SEQ ID NO: 6 (79D5): 8.46
- ratio (binding signal/HTRF signal) (79D5): 50.2
- fold increase of ratio over parental SEQ ID NO: 6 (56D2): 2.3
- ratio (binding signal/HTRF signal) (56D2): 13.7
- fold increase of ratio over parental SEQ ID NO: 6 (55H2): 3.28
- ratio (binding signal/HTRF signal) (55H2): 19.5
- fold increase of ratio over parental SEQ ID NO: 6 (36E4): 2.07
- ratio (binding signal/HTRF signal) (36E4): 12.3
- fold increase of ratio over parental SEQ ID NO: 6 (63C3): 4.15
- ratio (binding signal/HTRF signal) (63C3): 24.7
- fold increase of ratio over parental SEQ ID NO: 6 (74D7): 3.27
- ratio (binding signal/HTRF signal) (74D7): 19.4
- fold increase of ratio over parental SEQ ID NO: 6 (71A4): 10.2
- ratio (binding signal/HTRF signal) (71A4): 60.5
- fold increase of ratio over parental SEQ ID NO: 6 (79C2): 8.62
- ratio (binding signal/HTRF signal) (79C2): 51.2
- fold increase of ratio over parental SEQ ID NO: 6 (84B8): 9.71
- ratio (binding signal/HTRF signal) (84B8): 57.7
- fold increase of ratio over parental SEQ ID NO: 6 (67C11): 3.57
- ratio (binding signal/HTRF signal) (67C11): 21.2
- fold increase of ratio over parental SEQ ID NO: 6 (56F8): 3.65
- ratio (binding signal/HTRF signal) (56F8): 21.7
